Assay results published in the Immune Epitope Database (IEDB).

Key:
HLA-A*11:01 = experiment: IEDB peptide-MHC binding, purified MHC/competitive/radioactivity; filed as Kd, often an IC50 or EC50 that approximates it; ≥ and ≤ were set here for values at or beyond the usual limits of such assays
HLA-A*24:02 = experiment: as above
HLA-A*02:01 [1] = experiment: IEDB peptide-MHC binding, purified MHC/competitive/radioactivity; ≥ and ≤ were set here for values at or beyond the usual limits of such assays; settings: source organism: Hepatitis B virus subtype adyw
HLA-A*01:01 = experiment: IEDB peptide-MHC binding, purified MHC/competitive/radioactivity; filed as Kd, often an IC50 or EC50 that approximates it; ≥ and ≤ were set here for values at or beyond the usual limits of such assays
HLA-A*02:01 [2] = experiment: as above
HLA-A*03:01 [3] = experiment: as above
HLA-A*03:01 [4] = experiment: IEDB peptide-MHC binding, purified MHC/competitive/radioactivity; ≥ and ≤ were set here for values at or beyond the usual limits of such assays; settings: source organism: Human immunodeficiency virus type 1 (NDK ISOLATE)
[5] = source organism: Hepatitis B virus subtype adyw
[6] = source organism: Human immunodeficiency virus type 1 (NDK ISOLATE)
[7] = source organism: Plasmodium falciparum

**Q.** For EADPTGHSY, which Kd (HLA-A*11:01; source organism: Homo sapiens) is on record?
**A.** ≥ 5 µM

**Q.** And the Kd (HLA-A*24:02; source organism: Homo sapiens)?
**A.** ≥ 5 µM

**Q.** With FLPSDFFPS as the sequence, how does the IC50 (HLA-A*02:01 [1]) read?
**A.** 0.117 µM

**Q.** How did the Kd (HLA-A*01:01; [5]) turn out when WLSLLVPFV was run?
**A.** ≥ 5 µM

**Q.** With FLPSDFFPSVR as the sequence, how does the IC50 (HLA-A*02:01 [1]) read?
**A.** 0.305 µM

**Q.** For FLPSDFFP, which Kd (HLA-A*02:01 [2]; [5]) is on record?
**A.** ≥ 50 µM

**Q.** With ELRSRYWAI as the sequence, how does the Kd (HLA-A*24:02; source organism: Influenza A virus (A/Puerto Rico/8/1934(H1N1))) read?
**A.** ≥ 5 µM

**Q.** SFLPSDFFPSV was tested. Which Kd (HLA-A*02:01 [2]; [5]) did it give?
**A.** ≥ 50 µM

**Q.** For LLGRNSFEV, which Kd (HLA-A*01:01; source organism: Homo sapiens) is on record?
**A.** ≥ 5 µM

**Q.** What about the Kd (HLA-A*11:01; source organism: Homo sapiens) of the same sequence?
**A.** ≥ 5 µM

**Q.** What about the Kd (HLA-A*03:01 [3]; source organism: Homo sapiens) of the same sequence?
**A.** ≥ 5 µM

**Q.** And the Kd (HLA-A*24:02; source organism: Homo sapiens)?
**A.** ≥ 5 µM

**Q.** KRYEGLTQR was tested. Which Kd (HLA-A*01:01; source organism: Homo sapiens) did it give?
**A.** ≥ 5 µM

**Q.** What about the Kd (HLA-A*11:01; source organism: Homo sapiens) of the same sequence?
**A.** ≥ 5 µM

**Q.** And the Kd (HLA-A*02:01 [2]; source organism: Homo sapiens)?
**A.** ≥ 5 µM

**Q.** And the Kd (HLA-A*03:01 [3]; source organism: Homo sapiens)?
**A.** ≥ 5 µM

**Q.** And the Kd (HLA-A*24:02; source organism: Homo sapiens)?
**A.** ≥ 5 µM

**Q.** PSDFFPSV was tested. Which Kd (HLA-A*02:01 [2]; [5]) did it give?
**A.** ≥ 50 µM

**Q.** What does the source list for RRYQKSTEL?
**A.** Kd (HLA-A*01:01; source organism: Homo sapiens): ≥ 5 µM; Kd (HLA-A*11:01; source organism: Homo sapiens): ≥ 5 µM; Kd (HLA-A*02:01 [2]; source organism: Homo sapiens): ≥ 5 µM; Kd (HLA-A*03:01 [3]; source organism: Homo sapiens): ≥ 5 µM; Kd (HLA-A*24:02; source organism: Homo sapiens): ≥ 5 µM

**Q.** For AVDLSHFLK, which IC50 (HLA-A*03:01 [4]) is on record?
**A.** 0.149 µM

**Q.** And the Kd (HLA-A*01:01; [6])?
**A.** ≥ 5 µM

**Q.** And the Kd (HLA-A*02:01 [2]; [6])?
**A.** ≥ 5 µM

**Q.** What about the Kd (HLA-A*24:02; [6]) of the same sequence?
**A.** ≥ 5 µM

**Q.** Which Kd (HLA-A*01:01; [6]) does the source give for ILKEPVHGV here?
**A.** ≥ 5 µM

**Q.** And the Kd (HLA-A*11:01; [6])?
**A.** ≥ 5 µM

**Q.** What about the Kd (HLA-A*03:01 [3]; [6]) of the same sequence?
**A.** ≥ 5 µM

**Q.** What about the Kd (HLA-A*24:02; [6]) of the same sequence?
**A.** ≥ 5 µM

**Q.** Which Kd (HLA-A*01:01; [7]) does the source give for KPIVQYDNF here?
**A.** ≥ 5 µM

**Q.** And the Kd (HLA-A*11:01; [7])?
**A.** ≥ 5 µM

**Q.** What about the Kd (HLA-A*02:01 [2]; [7]) of the same sequence?
**A.** ≥ 5 µM

**Q.** What about the Kd (HLA-A*03:01 [3]; [7]) of the same sequence?
**A.** ≥ 5 µM

**Q.** What about the Kd (HLA-A*24:02; [7]) of the same sequence?
**A.** ≥ 5 µM
